The source of these data is US6902885 (APOPTOSIS TECHNOLOGY, dated 2005).

The assay has as its target T1, caspase 9 (UniProt P55211 1-416).
T1 sequence: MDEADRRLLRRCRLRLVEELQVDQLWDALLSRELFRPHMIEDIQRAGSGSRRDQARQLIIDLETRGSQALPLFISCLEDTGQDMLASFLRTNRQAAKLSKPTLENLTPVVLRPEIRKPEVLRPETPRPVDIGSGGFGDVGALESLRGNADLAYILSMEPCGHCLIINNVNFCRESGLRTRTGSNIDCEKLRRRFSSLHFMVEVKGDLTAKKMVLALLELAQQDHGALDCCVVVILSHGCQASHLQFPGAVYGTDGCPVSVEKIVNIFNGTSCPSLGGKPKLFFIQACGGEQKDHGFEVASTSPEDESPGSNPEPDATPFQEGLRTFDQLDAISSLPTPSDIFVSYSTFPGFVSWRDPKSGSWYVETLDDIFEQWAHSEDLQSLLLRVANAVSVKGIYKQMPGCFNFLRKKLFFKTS
Description: pull-down: pUL37Smyc held by anti-myc antibody on protein G agarose beads, 35S-labelled in vitro translated protein, SDS-PAGE.

B1: pUL37Smyc (HCMV pUL37S fused at its C-terminus with a c-myc-epitope tag) (other)
chain: MSPVYVNLLGSVGLLAFWYFSYRWIQRKRLEDPLPPWLRKKKACALTRRSRHRLRRQHGVIDGENSETERSVDLVAALLAEAGEESVTEDTEREDTEEEREDEEEENEARTPEVNPIDAEGLSGLAREACEALKKALRRHRFLWQRRQRARMLQHNGPQQSHQ
notes: range 410-419; also called pUL37x1; pUL37x1myc
In the case of B1, the binding result was “no binding”.
